Data taken from patent US20240270821A1, “GIP/GLP1/GCG TRI-RECEPTOR AGONISTS AND USES THEREOF” (priority 2023, published 2024).
Substitutions are numbered along the chain they refer to.

T1: human GIP receptor (human) (UniProt P48546)
T1 sequence (looked up): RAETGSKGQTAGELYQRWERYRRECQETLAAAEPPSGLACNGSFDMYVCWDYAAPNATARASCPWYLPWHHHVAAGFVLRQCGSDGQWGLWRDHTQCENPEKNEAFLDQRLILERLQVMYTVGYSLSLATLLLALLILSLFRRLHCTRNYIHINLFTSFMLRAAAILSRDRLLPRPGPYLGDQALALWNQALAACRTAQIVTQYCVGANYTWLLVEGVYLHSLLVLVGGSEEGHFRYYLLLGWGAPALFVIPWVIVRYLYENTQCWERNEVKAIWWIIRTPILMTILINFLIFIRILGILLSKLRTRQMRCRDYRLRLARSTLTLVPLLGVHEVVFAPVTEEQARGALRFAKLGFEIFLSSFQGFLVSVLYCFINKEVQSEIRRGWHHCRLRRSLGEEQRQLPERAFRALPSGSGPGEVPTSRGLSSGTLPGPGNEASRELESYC

B1: Example 977 (peptide)
chain: YXQGTFTSDXSQXLDXKAQXAFIEYLIAGGPSSGEPPPSGSE
modifications: synthetic construct; SITE 2: note = 2-Aminoisobutyric Acid; SITE 10: note = 3-(4-Pyridyl)-L-alanine; SITE 13: note = alpha-methyl-leucine; SITE 16: note = L-ornithine; SITE 17: note = Lysine is chemically modified through conjugation of the epsilon-amino group of the Lysine side chain with (gamma-Gl)
B2: Example 985 (peptide)
chain: YXQGTFTSDXSXXLDXKAQXAFIEYLIAGGPSSGEPPPSGTEE
modifications: non-natural residues, acylated Lys, C-terminal amide; synthetic construct; SITE 2: note = 2-Aminoisobutyric Acid; SITE 10: note = 3-(4-Pyridyl)-L-alanine; SITE 12: note = L-ornithine; SITE 13: note = alpha-methyl-leucine; SITE 16: note = L-ornithine; SITE 17: note = Lysine is chemically modified through conjugation of the epsilon-amino group of the Lys
B3: Example 982 (peptide)
chain: YXQGTFTSDXSXXLDKKAQXAFIEYLIAGGPSSGEPPPSGTEEE
modifications: synthetic construct; SITE 2: note = 2-Aminoisobutyric Acid; SITE 10: note = 3-(4-Pyridyl)-L-alanine; SITE 12: note = L-ornithine; SITE 13: note = alpha-methyl-leucine; SITE 17: note = Lysine is chemically modified through conjugation of the epsilon-amino group of the Lysine side chain with (gamma-Gl)
B4: Example 983 (peptide)
chain: YXQGTFTSDXSXXLDXKAQXAFIEYLIAGGPSSGEPPPSGE
modifications: Lys acylated (γ-Glu)2-C18 diacid; non-natural residues; C-terminal amide; synthetic construct; SITE 2: note = 2-Aminoisobutyric Acid; SITE 10: note = 3-(4-Pyridyl)-L-alanine; SITE 12: note = L-ornithine; SITE 13: note = alpha-methyl-leucine; SITE 16: note = L-ornithine; SITE 17: note = Lysine is chemically modified through conjugation of the epsilon-amino group of the Lys
B5: Example 953 (peptide)
chain: YXQGTFTSDXSRXLDKKAQXAFIEXLIEGGPSSGAPPPSGS
modifications: Aib, 4Pal, αMeL, Me4Pal; lipidated Lys; C-terminal amide; synthetic construct; SITE 2: note = 2-Aminoisobutyric Acid; SITE 10: note = 3-(4-Pyridyl)-L-alanine; SITE 13: note = alpha-methyl-leucine; SITE 17: note = Lysine is chemically modified through conjugation of the epsilon-amino group of the Lysine side chain with (gamma-Glu)2-CO-(CH2)16-CO2H; SITE 20:
B6: Example 969 (peptide)
chain: B5 chain with R12Q, X25Y, E28A, S39E
modifications: synthetic construct; SITE 2: note = 2-Aminoisobutyric Acid; SITE 10: note = 3-(4-Pyridyl)-L-alanine; SITE 13: note = alpha-methyl-leucine; SITE 17: note = Lysine is chemically modified through conjugation of the epsilon-amino group of the Lysine side chain with (gamma-Glu)2-CO-(CH2)16-CO2H; SITE 20:
B7: Example 979 (peptide)
chain: B4 chain with X16K
modifications: synthetic construct; SITE 2: note = 2-Aminoisobutyric Acid; SITE 10: note = 3-(4-Pyridyl)-L-alanine; SITE 12: note = L-ornithine; SITE 13: note = alpha-methyl-leucine; SITE 17: note = Lysine is chemically modified through conjugation of the epsilon-amino group of the Lysine side chain with (gamma-Gl)
B8: Example 968 (peptide)
chain: B4 chain with X12Q, X16K, E41S
modifications: synthetic construct; SITE 2: note = 2-Aminoisobutyric Acid; SITE 10: note = 3-(4-Pyridyl)-L-alanine; SITE 13: note = alpha-methyl-leucine; SITE 17: note = Lysine is chemically modified through conjugation of the epsilon-amino group of the Lysine side chain with (gamma-Glu)2-CO-(CH2)16-CO2H; SITE 20:

The binders below were run against hGLP-1R (Homo sapiens, UniProt P43220) (assay: cell-based or functional assay).
Sequence of hGLP-1R (P43220 24-463): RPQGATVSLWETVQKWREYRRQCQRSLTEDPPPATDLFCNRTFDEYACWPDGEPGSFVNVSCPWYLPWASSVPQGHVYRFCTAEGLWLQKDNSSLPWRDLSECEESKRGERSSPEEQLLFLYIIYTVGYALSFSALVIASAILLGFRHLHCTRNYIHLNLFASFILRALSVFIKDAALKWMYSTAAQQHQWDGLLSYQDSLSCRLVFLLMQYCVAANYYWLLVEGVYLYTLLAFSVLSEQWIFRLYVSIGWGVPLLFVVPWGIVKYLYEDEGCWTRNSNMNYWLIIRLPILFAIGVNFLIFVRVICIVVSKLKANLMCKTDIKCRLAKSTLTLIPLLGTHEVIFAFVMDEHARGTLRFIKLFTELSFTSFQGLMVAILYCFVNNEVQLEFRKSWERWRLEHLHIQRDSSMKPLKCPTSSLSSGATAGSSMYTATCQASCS
B1 gave a Relative cAMP EC50 of 1.1 nM and a cAMP Rel EC50, nM (1% HSA) of 159 nM.
With B2 the Relative cAMP EC50 was 2.93 nM and the cAMP Rel EC50, nM (1% HSA) was 217 nM.
Work on B3 yielded a Relative cAMP EC50 of 4.94 nM and a cAMP Rel EC50, nM (1% HSA) of 310 nM.
With B4 the Relative cAMP EC50 was 2.35 nM and the cAMP Rel EC50, nM (1% HSA) was 207 nM.
B5 was tested, and the cAMP Rel EC50, nM (1% HSA) was 347 nM.
In the case of B6, the Relative cAMP EC50 is reported as 1.21 nM and the cAMP Rel EC50, nM (1% HSA) is reported as 113 nM.
B7 showed a Relative cAMP EC50 of 2.72 nM and a cAMP Rel EC50, nM (1% HSA) of 257 nM.
With B8 the Relative cAMP EC50 was 1.04 nM and the cAMP Rel EC50, nM (1% HSA) was 103 nM.

These binders were tested against T1, human GIP receptor (human) (assay: cell-based or functional assay).
B1 gave a Relative cAMP EC50 of 0.189 nM and a cAMP Rel EC50, nM (1% HSA) of 23 nM.
In the case of B2, the Relative cAMP EC50 is reported as 0.34 nM and the cAMP Rel EC50, nM (1% HSA) is reported as 24 nM.
With B3 the Relative cAMP EC50 was 0.328 nM and the cAMP Rel EC50, nM (1% HSA) was 19.4 nM.
B4 gave a Relative cAMP EC50 of 0.289 nM and a cAMP Rel EC50, nM (1% HSA) of 19.4 nM.
In the case of B5, the cAMP Rel EC50, nM (1% HSA) is reported as 10.9 nM.
Work on B6 yielded a Relative cAMP EC50 of 0.142 nM and a cAMP Rel EC50, nM (1% HSA) of 12.6 nM.
Work on B7 yielded a Relative cAMP EC50 of 0.181 nM and a cAMP Rel EC50, nM (1% HSA) of 19.2 nM.
For B8, the Relative cAMP EC50 was 0.0928 nM and the cAMP Rel EC50, nM (1% HSA) was 11.7 nM.

Each binder was assayed against human glucagon receptor (human) (UniProt P47871) (assay: cell-based or functional assay).
Sequence of human glucagon receptor (human) (P47871 26-477): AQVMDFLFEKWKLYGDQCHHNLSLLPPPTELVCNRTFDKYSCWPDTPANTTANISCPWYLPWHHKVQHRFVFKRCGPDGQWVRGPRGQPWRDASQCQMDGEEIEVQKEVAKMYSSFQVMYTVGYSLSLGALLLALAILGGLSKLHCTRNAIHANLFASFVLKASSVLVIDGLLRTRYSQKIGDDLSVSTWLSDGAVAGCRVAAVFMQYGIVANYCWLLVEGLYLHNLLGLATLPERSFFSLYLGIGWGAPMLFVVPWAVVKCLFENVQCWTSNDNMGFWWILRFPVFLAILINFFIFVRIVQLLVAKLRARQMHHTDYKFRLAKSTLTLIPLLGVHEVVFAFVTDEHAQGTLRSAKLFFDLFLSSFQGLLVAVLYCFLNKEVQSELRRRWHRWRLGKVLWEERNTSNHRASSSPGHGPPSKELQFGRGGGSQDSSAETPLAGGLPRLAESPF
Binder B1 has a Relative cAMP EC50 of 7.18 nM and a cAMP Rel EC50, nM (1% HSA) of 839 nM.
In the case of B2, the Relative cAMP EC50 is reported as 5.41 nM and the cAMP Rel EC50, nM (1% HSA) is reported as 374 nM.
For B3, the Relative cAMP EC50 was 3.91 nM and the cAMP Rel EC50, nM (1% HSA) was 307 nM.
B4 was tested, and the Relative cAMP EC50 was 4.75 nM and the cAMP Rel EC50, nM (1% HSA) was 576 nM.
In the case of B5, the cAMP Rel EC50, nM (1% HSA) is reported as 275 nM.
Work on B6 yielded a Relative cAMP EC50 of 5.48 nM and a cAMP Rel EC50, nM (1% HSA) of 660 nM.
Work on B7 yielded a Relative cAMP EC50 of 3.34 nM and a cAMP Rel EC50, nM (1% HSA) of 359 nM.
For B8, the Relative cAMP EC50 was 4.72 nM and the cAMP Rel EC50, nM (1% HSA) was 625 nM.
